Key:
MS2 coat protein [1] = test: apparent KD of MS2 coat protein, switch ON state; designed switch direction (-1 OFF switch, 1 ON switch): -1; higher = weaker reporter binding; settings: FMN input: 0 or 200 uM; Eterna round: R93 (includes R88 designs)
Summary of the method: (§1)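 Designed RNA switches were transcribed on-chip from Illumina sequencing clusters. SNAP-549-labelled MS2 coat protein was titrated onto them in twofold steps from 0.7 or 1.5 nM to 3 µM in 100 mM Tris-HCl pH 7.5, 80 mM KCl, 4 mM MgCl2, either without or with constant ligand. Apparent KD reflects the per-design median of normalised cluster binding-curve fits.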

MS2 coat protein [2] = test: apparent KD of MS2 coat protein, switch OFF state (with FMN for OFF switches, without FMN for ON switches); designed switch direction (-1 OFF switch, 1 ON switch): -1; higher = weaker reporter binding; settings: FMN input: 0 or 200 uM; Eterna round: R93 (includes R88 designs)
Summary of the method: as §1

MS2 coat protein [3] = test: apparent KD of MS2 coat protein; designed switch direction (-1 OFF switch, 1 ON switch): 1; higher = weaker reporter binding
Summary of the method: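 For each design, the apparent KD is the median over clusters of curves fitted to normalised cluster fluorescence. Clusters held RNA switches with common flanks, transcribed on Illumina chips by stalled E. coli RNA polymerase. These were titrated with SNAP-549-labelled MS2 coat protein, doubling from 0.7 or 1.5 nM to 3 µM, without input, with 200 uM small-molecule ligand, or with an oligonucleotide input.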

[4] = Eterna round: R95, input ligand: FMN 200 uM
[5] = Eterna round: R95, input ligand: microRNA oligo, concentration not stated
[6] = Eterna round: R95, input ligand: none
[7] = input ligand: microRNA oligo, concentration not stated

Sequence | apparent KD of MS2 coat protein (MS2 coat protein [3]; [4]) | apparent KD of MS2 coat protein (MS2 coat protein [3]; [5]) | apparent KD of MS2 coat protein (MS2 coat protein [3]; [6]) | apparent KD of MS2 coat protein (MS2 coat protein [3]; [7]) | apparent KD of MS2 coat protein (MS2 coat protein [3]; input ligand: FMN 200 uM) | apparent KD of MS2 coat protein (MS2 coat protein [3]; input ligand: none) | further results
AAAAAGGUAGGAUAUACAUGAGGAUCACCCAUGUAAAAAAAAACAAGAGAAAAAAAAUGUAGAAGGGCCAAAAA [Ex3 Malc#4] |  |  |  |  |  |  | apparent KD of MS2 coat protein (MS2 coat protein [1]): 0.0143 µM; apparent KD of MS2 coat protein (MS2 coat protein [2]): 0.0169 µM
UGUCCAGCCUGAGCUGGACAAAAGCAUGUACAUGAGGAUCACCCAUGUUCAUGUACAAGCUUUUUGCUCGUCUUAUC [salish99_208a_r3_057] (puzzle: Sensor for hsa-mir-208a) | 0.401 µM | 0.0132 µM | 0.526 µM |  |  |  | 
UACAAUCUAUCUGAGGAUAUCAUGCAUUACACAUGAGGAUCACCCAUGUGCAGGAAAACUGCAUAUGAGAAGGCAGAUAGAUUGU [salish99_ss2_r3_066] (puzzle: Same State 2) | 0.0201 µM | 0.457 µM | 0.472 µM |  |  |  | 
GCCAUCGUAUGAGGAUAUGGCACCGAAACGGUGCCAGAAGGCAUGUCAAUAGACAUGAGGAUCACCCAUGUAUUAUCGAUGGCA [Mat - Same State NG 1 - JL mod - D90] (Eterna round: R96, puzzle: Same State NG 1) |  |  |  | 0.278 µM |  |  | 
AGUCCAGCCUGAGCUGGACAAAAGCAUGUACAUGAGGAUCACCCAUGUUCAUGUACAAGCUUUUUGCUCGUCUAAAA [Mat - hsa-mir-208a - Mod of JL - 50] (puzzle: Sensor for hsa-mir-208a) | 0.414 µM | 0.0162 µM | 0.54 µM |  |  |  | 
AGAGCCGGCACUGAGGAUAUUCAUAAUAAAACAUGAGGAUCACCCAUGUAGGCCAGAAGGCCUUGGGAGAAGGCAGGUCGGCUCA [Mat - Same State 2 - Mod of UCT - D67] (puzzle: Same State 2) | 0.0167 µM | 0.176 µM | 0.269 µM |  |  |  | 
GUAGCAUACCGAGGAUAUUCAUAUAACAUGAGGAUCACCCAUGUAAGGCCACAUUAGUGGCCUUGGGAGAAGGCGGAAUGCUAC [Xeonanis - 20 Mod41] (Eterna round: R96, puzzle: Same State NG 2) |  |  |  | 0.0635 µM | 0.0117 µM | 0.0771 µM | 
UAGAACAAGCUUUUUGCCCGUCUUAGAUAACAUGAGGAUCACCCAUGUAAGGUGAAAGUUAGAGAGUGGAGGAAGAA [JR_SHM208A_Sub054] (puzzle: Sensor for hsa-mir-208a) | 0.0864 µM | 0.217 µM | 0.146 µM |  |  |  | 
GACCGCGAGGAAGGAUAUGGAGCCUUAUUGGCUCCAGAAGGUCCAUAAGGGACAUGAGGAUCACCCAUGUGGGUUGAAGCGGUC [Fiskers NG1ss - 35] (Eterna round: R96, puzzle: Same State NG 1) |  |  |  | 0.14 µM | 0.0246 µM | 0.16 µM | 
GGAGCCGGCCUAGGAUAUUUCAUAUAAUAACAUGAGGAUCACCCAUGUAGGCCAGAAGGCCUUGGGAAGAAGGAGGUCGGCUCC [Loop Effect - U25,U28] (Eterna round: R96, puzzle: Same State NG 2) |  |  |  | 0.0391 µM | 0.0131 µM | 0.0508 µM | 
AACAAUCUAUCUGAGGAUAUCAUGAAAAAAACAUGAGGAUCACCCAUGUGCAGGAAAACUGCAUAUGAGAAGGCAGAUAGAUUGG [salish99_SS2_r3_003] (Eterna round: R96, puzzle: Same State 2) |  |  |  | 0.494 µM |  |  | 
GAUAGACAUGAGGAUCACCCAUGUGACAAAACCACAGGAUAUCACACAGGAGUAACUGCGUGAGAAGGGUGAGACU [Edatinti] (puzzle: Same State 1) | 0.109 µM | 0.0134 µM | 0.0324 µM |  |  |  | 
UAUUAGAUCCGAGGAUAUCCUUAUAAGAAACAUGAGGAUCACCCAUGUAAAGGGAAUUAUUUGUAGGAGAAGGCGGAUUUAGUU [JR_SSNG2_Sub055] (Eterna round: R96, puzzle: Same State NG 2) |  |  |  | 0.023 µM | 0.0289 µM | 0.0413 µM | 
UUUAGUUGCGCGCAGGAUAUGUAUUAAUAUACAUGAGGAUCACCCAUGUGAGACCAAAUAGGUCUACAGAAGGGCGAAUCGCGAC [Laonerce - 29] (Eterna round: R96, puzzle: Same State 2) |  |  |  | 0.182 µM | 0.0426 µM | 0.354 µM | 
GUUACAUGAGGAUCACCCAUGUAUGUGUGGGAGUAAGUGUCUUAGGAUAUCUGUUAUUAAAUUUAAGAGAAGGAAGAUUGUUGU [JMF's solution 36] (Eterna round: R96, puzzle: Same State NG 3) |  |  |  | 0.0641 µM | 0.104 µM | 0.0927 µM | 

— the supplement of paper PMC9170038
